Measured values taken from patent publication US20140348865A1, “[…] ON AN HIV-1 V1V2 SITE-OF-VULNERABILITY” (The United States of America, as represented by the …, priority 2011, published 2014).
Values joined by “and” are separate entries in the source; they are usually repeats but may differ in a detail not shown here. Equal entries are not always repeated.

What was measured:
1FD6-ZM109 V1V2 scaffold [1] = molecular target: 1FD6-ZM109 V1V2 scaffold
[2] = molecular target: linked dimer of the gp120 V1/V2 domain with truncated V1 and V2 variable loops
Linked-Dimer ZM109 = experiment: SPR
Linked-Dimer Cap45 = experiment: SPR, sensorgram box labelled PG9 Fab
1FD6-ZM109 V1V2 scaffold [3] = experiment: SPR, scaffold immobilized, PG9 Fab injected
1JO8-ZM109 V1V2 scaffold [4] = experiment: SPR, scaffold immobilized, PG9 Fab injected
[5] = molecular target: V3 loop-deleted gp120 of HIV-1 strain 16055 (HIV-1); experiment: SPR, gp120 amine-coupled, Fab injected
[6] = molecular target: V3 loop-deleted gp120 of HIV-1 strain AD244 (HIV-1); experiment: SPR, gp120 amine-coupled, Fab injected
[7] = molecular target: gp120 of HIV-1 strain 16055, full length (HIV-1); experiment: SPR, gp120 amine-coupled, Fab injected
[8] = molecular target: gp120 of HIV-1 strain AD244, full length (HIV-1); experiment: SPR, gp120 amine-coupled, Fab injected
Linked-Dimer A244 = experiment: SPR, sensorgram box labelled Flowcell 2: PG9 Fab
1JO8-ZM109 V1V2 scaffold [9] = experiment: SPR, antigen amine-coupled, Fab injected, 1:1 Langmuir
[10] = molecular target: gp120 of HIV-1 strain ZM109 (HIV-1); experiment: as above
[11] = molecular target: CAP45 154-177 glycopeptide with Man5GlcNAc2 at N160 and a complex glycan at N156; experiment: SPR, Fab injected over biotinylated glycopeptide on a streptavidin chip
[12] = molecular target: CAP45 154-177 glycopeptide with Man5GlcNAc2 at N160 only; experiment: as above
[13] = molecular target: Cap45 154-177 glycopeptide with Man5GlcNAc2 at N156 and Man5GlcNAc2 at N160; experiment: as above
[14] = molecular target: ZM109 154-177 glycopeptide with Man5GlcNAc2 at N160 and Man5GlcNAc2 at N173; experiment: as above
[15] = molecular target: ZM109 154-177 glycopeptide with Man5GlcNAc2 at N160 and a complex glycan at N173; experiment: as above
[16] = molecular target: ZM109 154-177 glycopeptide with Man5GlcNAc2 at N160 only; experiment: as above
monomeric gp120 = experiment: FIG. 11; method not given
[17] = molecular target: V3 loop-deleted gp120 of HIV-1 strain 16055 (HIV-1); experiment: SPR, heterogeneous ligand model, component 1, 46.9%
[18] = molecular target: gp120 of HIV-1 strain 16055, full length (HIV-1); experiment: SPR, heterogeneous ligand model, component 1, 66.0%
[19] = molecular target: V3 loop-deleted gp120 of HIV-1 strain AD244 (HIV-1); experiment: SPR, heterogeneous ligand model, component 1, 84.5%
[20] = molecular target: V3 loop-deleted gp120 of HIV-1 strain AD244 (HIV-1); experiment: SPR, heterogeneous ligand model, component 2, 15.5%
[21] = molecular target: gp120 of HIV-1 strain 16055, full length (HIV-1); experiment: SPR, heterogeneous ligand model, component 2, 34.0%
[22] = molecular target: V3 loop-deleted gp120 of HIV-1 strain 16055 (HIV-1); experiment: SPR, heterogeneous ligand model, component 2, 53.1%

For PG9 Fab, the Kd (1FD6-ZM109 V1V2 scaffold [1]) was 3980 nM and 5670 nM, the Kd [2] was 1700 nM and the Kd (Linked-Dimer ZM109) was 1610 nM. For the same substance, the Kd (Linked-Dimer Cap45) was 590 nM, the fold lower affinity than for wild-type ZM109 gp120 (1FD6-ZM109 V1V2 scaffold [3]) was 50 fold and the fold lower affinity than for wild-type ZM109 gp120 (1JO8-ZM109 V1V2 scaffold [4]) was 3 fold. For the same substance, the Kd [5] was 70.9 nM, the Kd [6] was 102 nM and the Kd [7] was 49 nM. For the same substance, the Kd [8] was 44 nM, the Kd (Linked-Dimer A244) was 1800 nM and the Kd (1JO8-ZM109 V1V2 scaffold [9]) was 318 nM. The koff (1JO8-ZM109 V1V2 scaffold [9]) was 0.00253 s⁻¹, the kon (1JO8-ZM109 V1V2 scaffold [9]) was 7960 M⁻¹ s⁻¹ and the Kd [10] was 96.8 nM. For the same substance, the koff [10] was 0.00285 s⁻¹, the kon [10] was 29500 M⁻¹ s⁻¹ and the Kd [11] was 5700 nM. The Kd [12] was 50000 nM, the Kd [13] was 45000 nM and the Kd [14] was 97000 nM. The Kd [15] was 5000 nM and the Kd [16] was 97000 nM.
For “Hypersulfated PG9 Fab (co-expressed with TPST-1)”, the fold increase of affinity by sulfation (monomeric gp120) was 10 fold.
PG16 Fab showed a Kd [8] of 4920 nM, a Kd [17] of 2070 nM and a Kd [18] of 370 nM. It also gave a Kd [19] of 3370 nM, a Kd [20] of 42.3 nM and a Kd [21] of 399 nM. The Kd [22] was 6130 nM, the Kd [11] was 32000 nM and the Kd [15] was 20000 nM.
